# Data reported in patent publication US20060281079.
# Read-outs that look alike come from different tables or passages of the source.
# System: R2 protein (R2Bm reverse transcriptase/endonuclease) (Bombyx mori)
# Sequence (chain, as listed by the source): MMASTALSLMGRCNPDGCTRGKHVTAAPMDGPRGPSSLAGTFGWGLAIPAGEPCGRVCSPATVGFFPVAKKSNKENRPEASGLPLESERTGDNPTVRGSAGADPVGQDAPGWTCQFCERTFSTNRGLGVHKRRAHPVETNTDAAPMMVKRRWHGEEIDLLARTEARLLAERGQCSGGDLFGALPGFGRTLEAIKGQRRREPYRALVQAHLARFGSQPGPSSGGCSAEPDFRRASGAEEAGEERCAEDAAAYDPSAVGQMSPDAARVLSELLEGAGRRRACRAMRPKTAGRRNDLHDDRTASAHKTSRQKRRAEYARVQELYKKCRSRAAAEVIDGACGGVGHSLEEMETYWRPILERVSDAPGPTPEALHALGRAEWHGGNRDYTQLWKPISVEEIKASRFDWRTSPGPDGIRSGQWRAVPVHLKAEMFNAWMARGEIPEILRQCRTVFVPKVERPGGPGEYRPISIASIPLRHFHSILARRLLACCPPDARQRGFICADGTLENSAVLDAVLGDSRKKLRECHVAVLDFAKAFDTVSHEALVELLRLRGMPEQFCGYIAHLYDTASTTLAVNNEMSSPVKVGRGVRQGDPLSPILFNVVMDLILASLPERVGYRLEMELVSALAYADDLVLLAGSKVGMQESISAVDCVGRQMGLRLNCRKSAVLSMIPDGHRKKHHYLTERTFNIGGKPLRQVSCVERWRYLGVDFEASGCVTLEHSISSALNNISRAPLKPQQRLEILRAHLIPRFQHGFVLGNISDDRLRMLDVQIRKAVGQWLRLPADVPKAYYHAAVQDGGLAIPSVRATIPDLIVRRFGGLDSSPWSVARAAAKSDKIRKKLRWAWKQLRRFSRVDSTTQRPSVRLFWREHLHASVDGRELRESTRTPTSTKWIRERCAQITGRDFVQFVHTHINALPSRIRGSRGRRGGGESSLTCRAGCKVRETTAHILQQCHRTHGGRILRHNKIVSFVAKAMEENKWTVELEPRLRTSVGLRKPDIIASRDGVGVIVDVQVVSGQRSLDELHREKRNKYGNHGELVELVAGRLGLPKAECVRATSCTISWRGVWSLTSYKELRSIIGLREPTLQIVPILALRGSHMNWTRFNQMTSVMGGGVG
substance,measurement,setting,value
183 nt vector RNA,binding signal,"RNA-primed reverse transcription relative to 254 nt R2 RNA, template jumps 15.1%",0.7
334 nt vector RNA,binding signal,"RNA-primed reverse transcription relative to 254 nt R2 RNA, template jumps 3.9%",0.44
254 nt R2 3' UTR RNA,binding signal,"RNA-primed reverse transcription without target DNA, template jumps 12.9%",1
